The nanobody polyreactivity screen of Harvey et al. (2022)

Test: yeast display, Sf9 membrane polyspecificity reagent, FACS + sequencing; frameworks hold sequencing errors
Summary of the method: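 Galactose-induced (36–48 hours) yeast carrying a synthetic nanobody display library were exposed to 10% biotinylated, detergent-solubilized Sf9 membrane reagent at 4 °C for 1 hour. FACS followed streptavidin microbead enrichment, using low and high (top ~1%) gates for expression (anti-HA) and reagent binding (streptavidin). Colony PCR, MiSeq 2 × 250 sequencing and CDR-length filtering followed. Labels for polyreactivity reflect the gate of origin.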

Sequence	polyreactivity (PSR sort gate)
QVQLVESGGGLVQAGGSLRLSCAASGRILPVYAMGWYRQAPGKERELVAAINDSGTNTNYADSVKGRFTISRDNAKNTVYLHMNSLKPEDTAVYYCAASSGPRQGYSYRPHKSYGSWGQGTQVTVSS	low polyreactivity
QVQLVESGGGLVQAGGSLRLSCAASGRILPYYAMGWYRQAPGKERELVAAITSGGSTYYADSVKGRFTISRDNAKNTVSLQMNSLKPEDTAVYYCATDVDKSLYDYWGQGTQVTVSS	low polyreactivity
QVQLVESGGGLVQAGGSLRLSCAASGRILQFNAMGWYRQATGKERELVAAISTSGGRTYYADSVKGRFTISRDNAKNTVYLQMISLKPEDTAVYDCNAVAYKLMGYWGQGTQVTVSS	high polyreactivity
QVQLVESGGGLVQAGGSLRLSCAASGRILQVEYAMGWNIQAPGKERELVAAITESDGSTSYADSVKGRFTISRDNAKNTVYLQMNSLKPEDTAVYYCNVVRGYPNGGYDYWGQGTQVTVSS	low polyreactivity
QVQLVESGGGLVQAGGSLRLSCAASGRILRDYDMGWYRQATGKERELVAAINWSDGSTYYADSVKGRFTISRDNAKNTVYLQMNSLKPEDTAVYYCAASRWRPLERGTTWLNDYWGQGTQVTVSS	low polyreactivity
QVQLVESGGGLVQAGGSLRLSCAASGRILRGYVMGWSRQAPGKERELVATITGRGGSTYYADSVKGRFTISRDNAKNTVYLQMNSLKPEDTAVYYCNKDGYPYFGRSEYWGQGTQVTVSS	low polyreactivity
QVQLVESGGGLVQAGGSLRLSCAASGRILRTNAMGWYRQAPGKERELVAAISSDGSTYYADSVKGRFTISRDNAKNTVYLQMNSLKPEDTAVYYCAARLFYRGPRFDYWGQGTQVTVSS	low polyreactivity
QVQLVESGGGLVQAGGSLRLSCAASGRILRYNAMGWYRQAPGKERELVATITRSAGRTYSADSVKGRFTISRDNAKNTVYLQMNSLKPEDTAVYYCAKDTDISTLHSKGRAKSRYDYWGQGTQVTVSS	low polyreactivity
QVQLVESGGGLVQAGGSLRLSCAASGRILRYYAMGGYRQAPGKERELVAAITSGGSTTYYADSVKGRFTISRDNAKNTVYLQMNSLKPEDTAVYYCAADRARSSAKYDYWGQGTQVTVSS	low polyreactivity
QVQLVESGGGLVQAGGSLRLSCAASGRILSLYAMGWYRPPPGKERELVAAIRWSGSRTYYADSVKGRFTISRDNAKNTVYLQMNSLKPEDTAVYYCNAWYRLLRSSDYYWGQGTQVTVSS	high polyreactivity
QVQLVESGGGLVQAGGSLRLSCAASGRILTLYAMGWYRQAPGKERELVAGINRGDVSTYYADSVKGRFTISRDNAKNSVYLQMNSLKPEDTAVYYCYADPPPDYYPDKDNYWGQGSQVTVSS	low polyreactivity
QVQLVESGGGLVQAGGSLRLSCAASGRILTSNAMGWYRQAPGTEMELVAAISWSGGSTYYADSVKGRFTISRDNAKNTVYLQMNSLKPEDTAVYYCAAVSYYASDYRYDYWGQGTQVTVSS	low polyreactivity
QVQLVESGGGLVQAGGSLRLSCAASGRILTTNAMGWYRQAPGKERELVAAITRSGGRTYYADSVKGRFTISRDNAKNTVYLQMNSLKPEDTAVYYCAAATSPGIYDYWGQGTQVTVSS	high polyreactivity
QVQLVESGGGLVQAGGSLRLSCAASGRILVHNAMGWYRQAPGKERELVAVITARGASTYYADSVKGRFTISRDNAKNTVYLQMNSLKPEDTAVYYCATDKRPKYYNQYDYWGQGTQVTVSS	low polyreactivity
QVQLVESGGGLVQAGGSLRLSCAASGRILVLNAMGWYRQAPGKERELVADITSGGSTYYADSVKGRFTISRDNAKNTVYLQMNSLKPEDTAVYYCAADWNTYPDYQQSYFVSYEYNYWGQGTQVTVSS	low polyreactivity
QVQLVESGGGLVQAGGSLRLSCAASGRILVRNAMGWYRQAPGQERELVAAITRTGASTYYADSVKGRFTISRDNPKNTVYLQMNSLKPEDTAVYYCAAVWGLPYWVYRYDYWGQGNQVTVSS	high polyreactivity
QVQLVESGGGLVQAGGSLRLSCAASGRILWWYAMAWYRQAPGKERELVATITYSGGSTYADSVKGRFTISRDNAKNTVYLQMNSLKPVDTAVYYCAARLALYYGKSVYWGQGTQVTVSS	high polyreactivity
QVQLVESGGGLVQAGGSLRLSCAASGRILWYYAMGWYRQAPGKERELVASISWSGGRTYYADSVKGRFTISRDNAKNTVYLQMNSLKPEDTAVYYCAAQLTRWRKPGDMEYWGQGTQVTVSS	high polyreactivity
QVQLVESGGGLVQAGGSLRLSCAASGRILYDYDMGWYRQAPGKERELVATISRGGGTNYADSVKGRFTISRDNAKNNVYLQMNSLKPEDTAVYYCAAYYSSDGDYWGQGTQVTVSS	low polyreactivity
QVQLVESGGGLVQAGGSLRLSCAASGRILYGYTMGWYRQAPGKERELVAAISSNGDSTYYADSVKGRFTISRDNAKNTVYLQLNSLKPEDTAVYYCAAVSIGPGEYDYWGQGTQVTVSS	low polyreactivity

Sequence	polyreactivity (PSR sort gate)
QVQLVESGGGLVQAGGSLRLSCAASGRILYSYAMGWYRQAPGKERELVAAISSTGSTYYADSVKGRFTISRDNAKNTVYLQMNSLKPEDTAVYYCAATFYPYQVHHYYYWGKGTQVTVSS	low polyreactivity
QVQLVESGGGLVQAGGSLRLSCAASGRILYSYAMGWYRQAPGKERELVADITQRGGTTDYADSVKGRFTISRDNAKTTVYVQMNSLKPEDTAVYYCNANSYRSYGGRGGVEYDYWGEGTQVTVSS	low polyreactivity
QVQLVESGGGLVQAGGSLRLSCAASGRILYSYTMGWYRPAPGKEREFVAAITRSGGGTYYADSVKGRFTISRDNAKNTVYLQMNSLKPEDTAVYYCAATRNPYRRSNYDYWGQGTQVTVSS	high polyreactivity
QVQLVESGGGLVQAGGSLRLSCAASGRILYWYAMGGYRQAPGKERELVAGIDWSGGSTYYADSVKGRFTISRDNAKNTVYLQMNSLKPEDTAVYYCNAVQNRGRGSHRGESTYYYWGQGTQVTVSS	low polyreactivity
QVQLVESGGGLVQAGGSLRLSCAASGRILYYYAMGWYRQAPGKERELVAAITWGGGSTYYADSVKGRFTISRDNAKNTVYLQMNSLKPEDTAVYYCNRTFRSRLPTSRGYDYWGQGTQVTVSS	low polyreactivity
QVQLVESGGGLVQAGGSLRLSCAASGRINAMGWYRQAPGKERELVAVITLRGGSTYYADSVKGRFTISRDNAKNTGYLQMNSLKPEDTAVYYCAAETLVSFWFDYWGQGTQVTVSS	low polyreactivity
QVQLVESGGGLVQAGGSLRLSCAASGRIRFYAMGWYIQAPGKERELVAAISSSGGSTYYADSVKGRFTISRDNAKNTVYLQMNSLKPEDTAVYYCAAAWYYLGTRAQLYDYWGQGTQVTVSS	low polyreactivity
QVQLVESGGGLVQAGGSLRLSCAASGRIRRYTMGWYRQAPGKVRELVASISGNGGSTYYADSVKGRFTISRDNAKNTVYLQMNSLKPEDTAVYYCARTKQEYTFGQFYLGDYWGQGTQVTVSS	low polyreactivity
QVQLVESGGGLVQAGGSLRLSCAASGRISAFNAMGWYRQAPGKERELVAAINVSGGNTYYADSVKGRFTISRDNAKNTVYLQMNSLKPEDTAVYYCAAERRRWGLDYYYWGQGTQVTVSS	high polyreactivity
QVQLVESGGGLVQAGGSLRLSCAASGRISESNDMGWSRQAPWKERELVAAISSSGGSTYYADSVKGRFTISRDNAKNTVYLQMNSLKPEDTAVYYCNAVYYRTVLKIGVYEYDYWGQGTQVTVSS	low polyreactivity
QVQLVESGGGLVQAGGSLRLSCAASGRISFRILWDGIDRRLGKKGSWLPLLTNTGSTNYADSVKGRFTISRDNAKNTVYLQIHSLKPEDTAVYDCNADPTGGSSYPAYFEYDYWGQGTQVTVSS	low polyreactivity
QVQLVESGGGLVQAGGSLRLSCAASGRISFRYAMGWSRQAPGKEWELVAAINRGGITNYADSVKGRFTISRDNAKNTVYFQMNSLKPEDTAVYYCAARYASPRYKSKMDYWGQGTQVTVSS	high polyreactivity
QVQLVESGGGLVQAGGSLRLSCAASGRISGVNAMGWYRQAPGKERELVATISGSGGRTYYADSVKGRFTISRDNAKNTVYLQMNSLKPEDTAVYYCNTLVQRGGYFSLRFDYWGQGTQVTVSS	low polyreactivity
QVQLVESGGGLVQAGGSLRLSCAASGRISLFNAMGWYRQAPGKERELVAAITYTGGSTYYADSVKGRFTISRDNAKNTVYLQMNSLKPEDTAVYYCAAEYYYVYTYDYWGQGTQVTVSS	high polyreactivity
QVQLVESGGGLVQAGGSLRLSCAASGRISLGNAMGWYRQAPGKERELVAVITRGGRTSYADSVKGRFTISRDNAKNTVYLQMNSLKPEDTAVYYCAAESPVYHLVTYDYWGQGTQVTVSS	high polyreactivity
QVQLVESGGGLVQAGGSLRLSCAASGRISLRNGMGWYRQAPGKERELVAAISRGGSTYYADSVKGRFTISRDNAKNTVYLHMNSLKPEDTAVYYCNAYIRPIYVDDDYWGQSTQVTVSS	low polyreactivity
QVQLVESGGGLVQAGGSLRLSCAASGRISLVNAMGWYRQAPGKERELVAAITYTGGSTYYADSVKGRFTISRDNAKNTVYLQMNSLKPEDTAVYYCAAEYYYVYTYDYWGQGTQVTVSS	high polyreactivity
QVQLVESGGGLVQAGGSLRLSCAASGRISLYAMGWYRQAPGKEREMVAAINGRGGNTYYADSVKGRFTISRDNAKNTVYLQMNSLKPEDTAVYYCNAVTVNGPYGYDYWGQGTQVTVSS	high polyreactivity
QVQLVESGGGLVQAGGSLRLSCAASGRISQHNAMGWYRQAPGKERELVAAISWIGTSTYYADSVKGRFTISRDNAKNTVYLQMNSLKPEDTAVYYGWSTRGPPYIYLNYNYWGQGTQVTVSS	low polyreactivity
QVQLVESGGGLVQAGGSLRLSCAASGRISQTNAMGWYRQAPGKERELVAAISWRGGSTYYADSVKGRFTISRDNAKNTVYLQMNSLKPEDTAVYYCAVRGKYDRHYYWGQGTQVTVSS	high polyreactivity
